These results are taken from patent US20210284724A1 (I MAB BIOPHARMA US, published 2021).

The assay deals with T1, human CXCL13 (human, UniProt O43927 23-109).
T1 construct: also called huCXCL13; rhCXCL13
T1 sequence (looked up): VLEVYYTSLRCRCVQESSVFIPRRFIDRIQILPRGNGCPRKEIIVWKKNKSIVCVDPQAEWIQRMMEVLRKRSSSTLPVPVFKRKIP
Briefly: SPR Biacore, off-rate ranking of Fabs. For orientation: SPR reads the build-up and loss of mass on a sensor chip optically.

B1: 411A11E9-VH2VL2 (Fab, V domains shown)
VH: EVQLVESGGGLVQPGGSLRLSCAASGFTFSDYYMAWVRQAPGKGLEWVASINYDGGDTYYRDSVKGRFTISRDNAKNSLYLQMNSLRAEDTAVYYCATEEDYDGSYVMDAWGQGTLVTVSS
VL: DIQMTQSPSSLSASVGDRVTITCKASQNINKELTWYQQKPGKAPKRLIYNTNILQTGVPSRFSGSGSGTEFTLTISSLQPEDFATYFCLQQSSLYTFGQGTKLEIK
notes: Humanized Fab, human gamma 1 and kappa constant domains
Molecule B1 gave a Kd of 1.05 nM, a dissociation rate constant (koff) of 0.00271 s⁻¹ and a kon of 2.58e+06 M⁻¹ s⁻¹.

B2: 411A11E9-VH2VL3 (Fab, V domains shown)
VH: EVQLVESGGGLVQPGGSLRLSCAASGFTFSDYYMAWVRQAPGKGLEWVASINYDGGDTYYRDSVKGRFTISRDNAKNSLYLQMNSLRAEDTAVYYCATEEDYDGSYVMDAWGQGTLVTVSS
VL: DIQMTQSPSSLSASVGDRVTITCKASQNINKELTWYQQKPGKAPKRLIYNTNILQTGIPSRFSGSGSGTEFTLTISSLQPEDFATYFCLQQSSLYTFGQGTKLEIK
notes: as for B1
B2 gave a Kd of 1.42 nM, a koff of 0.00335 s⁻¹ and a kon of 2.36e+06 M⁻¹ s⁻¹.

B3: 411A11E9-VH3VL1 (Fab, V domains shown)
VH: EVQLVESGGGLVQPGGSLRLSCAVSGFTFSDYYMAWVRQAPGKGLEWVASINYDGGDTYYRDSVKGRFTISRDNAKNSLYLQMNSLRAEDTAVYYCATEEDYDGSYVMDAWGQGTLVTVSS
VL: DIQMTQSPSSLSASVGDRVTITCKASQNINKELTWYQQKPGKAPKRLIYNTNILQTGVPSRFSGSGSGTEFTLTISSLQPEDFATYYCLQQSSLYTFGQGTKLEIK
notes: as for B1
B3 had a Kd of 1.06 nM, a koff of 0.00242 s⁻¹ and a kon of 2.29e+06 M⁻¹ s⁻¹.

B4: 411A11E9-VH4VL1 (Fab, V domains shown)
VH: EVQLVESGGGLVQPGGSLRLSCAVSGFTFSDYYMAWVRQAPGKGLEWVASINYDGGDTYYRDSVKGRFTVSRDNAKNSLYLQMNSLRAEDTAVYYCATEEDYDGSYVMDAWGQGALVTVSS
VL: DIQMTQSPSSLSASVGDRVTITCKASQNINKELTWYQQKPGKAPKRLIYNTNILQTGVPSRFSGSGSGTEFTLTISSLQPEDFATYYCLQQSSLYTFGQGTKLEIK
notes: as for B1
Molecule B4 came in with a Kd of 1.03 nM, a koff of 0.00281 s⁻¹ and a kon of 2.73e+06 M⁻¹ s⁻¹.

B5: 411A11E9-VH4VL2 (Fab, V domains shown)
VH: EVQLVESGGGLVQPGGSLRLSCAVSGFTFSDYYMAWVRQAPGKGLEWVASINYDGGDTYYRDSVKGRFTVSRDNAKNSLYLQMNSLRAEDTAVYYCATEEDYDGSYVMDAWGQGALVTVSS
VL: DIQMTQSPSSLSASVGDRVTITCKASQNINKELTWYQQKPGKAPKRLIYNTNILQTGVPSRFSGSGSGTEFTLTISSLQPEDFATYFCLQQSSLYTFGQGTKLEIK
notes: as for B1
For the molecule B5, the Kd worked out at 0.944 nM, the koff was determined as 0.00196 s⁻¹ and the kon was 2.08e+06 M⁻¹ s⁻¹.

B6: 411A11E9-VH1VL3 (Fab, V domains shown)
VH: EVQLVESGGGLVQPGGSLRLSCAASGFTFSDYYMAWVRQAPGKGLEWVASINYDGGDTYYRDSVKGRFTISRDNAKNSLYLQMNSLRAEDTAVYYCAREEDYDGSYVMDAWGQGTLVTVSS
VL: DIQMTQSPSSLSASVGDRVTITCKASQNINKELTWYQQKPGKAPKRLIYNTNILQTGIPSRFSGSGSGTEFTLTISSLQPEDFATYFCLQQSSLYTFGQGTKLEIK
notes: as for B1
As to B6, the Kd came to 3.37 nM, the koff was 0.00176 s⁻¹ and the kon stood at 523000 M⁻¹ s⁻¹.

B7: 411A11E9-VH4VL4 (Fab, V domains shown)
VH: EVQLVESGGGLVQPGGSLRLSCAVSGFTFSDYYMAWVRQAPGKGLEWVASINYDGGDTYYRDSVKGRFTVSRDNAKNSLYLQMNSLRAEDTAVYYCATEEDYDGSYVMDAWGQGALVTVSS
VL: DIQMTQSPSSLSASVGDRVTITCKASQNINKELTWYQQKPGKAPKRLIYNTNILQTGIPSRFSGSGSGTEYTLTISSLQPEDFATYFCLQQSSLYTFGQGTKLEIK
notes: as for B1
Molecule B7 displayed a dissociation constant Kd of 0.611 nM, a koff of 0.00107 s⁻¹ and a kon of 1.74e+06 M⁻¹ s⁻¹.

B8: 411A11E9-VH4VL3 (Fab, V domains shown)
VH: EVQLVESGGGLVQPGGSLRLSCAVSGFTFSDYYMAWVRQAPGKGLEWVASINYDGGDTYYRDSVKGRFTVSRDNAKNSLYLQMNSLRAEDTAVYYCATEEDYDGSYVMDAWGQGALVTVSS
VL: DIQMTQSPSSLSASVGDRVTITCKASQNINKELTWYQQKPGKAPKRLIYNTNILQTGIPSRFSGSGSGTEFTLTISSLQPEDFATYFCLQQSSLYTFGQGTKLEIK
notes: as for B1
B8 returned a Kd of 1.24 nM, a koff of 0.00266 s⁻¹ and a kon of 2.14e+06 M⁻¹ s⁻¹.

B9: 411A11E9-VH3VL3 (Fab, V domains shown)
VH: EVQLVESGGGLVQPGGSLRLSCAVSGFTFSDYYMAWVRQAPGKGLEWVASINYDGGDTYYRDSVKGRFTISRDNAKNSLYLQMNSLRAEDTAVYYCATEEDYDGSYVMDAWGQGTLVTVSS
VL: DIQMTQSPSSLSASVGDRVTITCKASQNINKELTWYQQKPGKAPKRLIYNTNILQTGIPSRFSGSGSGTEFTLTISSLQPEDFATYFCLQQSSLYTFGQGTKLEIK
notes: as for B1
The molecule B9 registered a Kd of 1.01 nM, a koff of 0.00207 s⁻¹ and a kon of 2.05e+06 M⁻¹ s⁻¹.

B10: 411A11E9-VH2VL1 (Fab, V domains shown)
VH: EVQLVESGGGLVQPGGSLRLSCAASGFTFSDYYMAWVRQAPGKGLEWVASINYDGGDTYYRDSVKGRFTISRDNAKNSLYLQMNSLRAEDTAVYYCATEEDYDGSYVMDAWGQGTLVTVSS
VL: DIQMTQSPSSLSASVGDRVTITCKASQNINKELTWYQQKPGKAPKRLIYNTNILQTGVPSRFSGSGSGTEFTLTISSLQPEDFATYYCLQQSSLYTFGQGTKLEIK
notes: as for B1
In turn, B10 returned a Kd of 1.19 nM, a koff of 0.00283 s⁻¹ and a kon of 2.37e+06 M⁻¹ s⁻¹.

B11: 411A11E9-VH1VL1 (Fab, V domains shown)
VH: EVQLVESGGGLVQPGGSLRLSCAASGFTFSDYYMAWVRQAPGKGLEWVASINYDGGDTYYRDSVKGRFTISRDNAKNSLYLQMNSLRAEDTAVYYCAREEDYDGSYVMDAWGQGTLVTVSS
VL: DIQMTQSPSSLSASVGDRVTITCKASQNINKELTWYQQKPGKAPKRLIYNTNILQTGVPSRFSGSGSGTEFTLTISSLQPEDFATYYCLQQSSLYTFGQGTKLEIK
notes: as for B1
Molecule B11 showed a Kd of 1.04 nM, a koff of 0.013 s⁻¹ and a kon of 1.25e+07 M⁻¹ s⁻¹.

B12: 71F4A3-VH2VL2 (Fab, V domains shown)
VH: EVQLVQSGGGLVQPGGSLRLSCAASGIDFSRYWMSWVRQAPGKGLEWVAEINPDSSTINYAPSLKDRFTISRDNAKNSLYLQMNSLRAEDTAVYYCARQDDYEYYAMDYWGQGTTVTVSS
VL: DIQMTQSPSSLSASVGDRVTITCKASQDVNTGVAWYQQKPGKAPKLLIYSASYRYTGVPSRFSGSGSGTDFTFTISSVQPEDIATYYCQQYYSTPLTFGGGTKLEIK
notes: as for B1
B12: the Kd stood at 0.607 nM, the koff came out at 0.00137 s⁻¹ and the kon worked out at 2.25e+06 M⁻¹ s⁻¹.

B13: 71F4A3-VH4VL1 (Fab, V domains shown)
VH: EVQLVQSGGGLVQPGGSLRLSCAASGIDFSRYWMSWVRQAPGKGLEWIGEINPDSSTINYAPSLKDRFTISRDNAKNSLYLQMNSVRAEDTAVYYCARQDDYEYYAMDYWGQGTTVTVSS
VL: DIQMTQSPSSLSASVGDRVTITCKASQDVNTGVAWYQQKPGKAPKLLIYSASYRYTGVPSRFSGSGSGTDFTFTISSLQPEDIATYYCQQYYSTPLTFGGGTKLEIK
notes: as for B1
As for B13, the equilibrium dissociation constant (Kd) was 0.59 nM, the koff is 0.001 s⁻¹ and the kon stood at 1.7e+06 M⁻¹ s⁻¹.

B14: 71F4A3-VH4VL2 (Fab, V domains shown)
VH: EVQLVQSGGGLVQPGGSLRLSCAASGIDFSRYWMSWVRQAPGKGLEWIGEINPDSSTINYAPSLKDRFTISRDNAKNSLYLQMNSVRAEDTAVYYCARQDDYEYYAMDYWGQGTTVTVSS
VL: DIQMTQSPSSLSASVGDRVTITCKASQDVNTGVAWYQQKPGKAPKLLIYSASYRYTGVPSRFSGSGSGTDFTFTISSVQPEDIATYYCQQYYSTPLTFGGGTKLEIK
notes: as for B1
In turn, B14 came in with a Kd of 0.53 nM, a koff of 0.00136 s⁻¹ and a kon of 2.57e+06 M⁻¹ s⁻¹.

B15: 71F4A3-VH3VL2 (Fab, V domains shown)
VH: EVQLVQSGGGLVQPGGSLRLSCAASGIDFSRYWMSWVRQAPGKGLEWVGEINPDSSTINYAPSLKDRFTISRDNAKNSLYLQMNSVRAEDTAVYYCARQDDYEYYAMDYWGQGTTVTVSS
VL: DIQMTQSPSSLSASVGDRVTITCKASQDVNTGVAWYQQKPGKAPKLLIYSASYRYTGVPSRFSGSGSGTDFTFTISSVQPEDIATYYCQQYYSTPLTFGGGTKLEIK
notes: as for B1
B15: binding was characterised by a dissociation constant (Kd) of 0.557 nM, the koff was 0.00139 s⁻¹ and the kon was 2.5e+06 M⁻¹ s⁻¹.

B16: 21H12D9-VH1VL3 (Fab, V domains shown)
VH: QVQLVQSGAEVKKPGASVKVSCKASGYTFTDYYMNWVRQAPGQGLEWMGVINPNNGGTTYKEKFKGRVTMTRDTSISTAYMELSRLRSDDTAVYYCARDDYDAGYWGQGTLVTVSS
VL: DIQMTQSPSSVSTSVGDRVTITCKASQNVDTAVAWYQQKPGKAPKLLIYSASHRYTGVPSRFSGSGSGTDFTLTISSVQPEDFATYYCQQYTDFPLTFGQGTRLEIK
notes: Humanized Fab, human gamma 1 and kappa constant domains; also called 21VH12D9-VH1VL3
Molecule B16 gave a Kd of 1.67 nM, a koff of 0.000975 s⁻¹ and a kon of 584000 M⁻¹ s⁻¹.

B17: 21H12D9-VH2VL1 (Fab, V domains shown)
VH: QVQLVQSGAEVVKPGASVKVSCKASGYTFTDYYMNWVRQAPGQGLEWMGVINPNNGGTTYKEKFKGRVTMTVDTSISTAYMELSRLRSDDTAVYYCARDDYDAGYWGQGTLVTVSS
VL: DIQMTQSPSSVSASVGDRVTITCKASQNVDTAVAWYQQKPGKAPKLLIYSASHRYTGVPSRFSGSGSGTDFTLTISSLQPEDFATYYCQQYTDFPLTFGQGTRLEIK
notes: Humanized Fab, human gamma 1 and kappa constant domains; also called 21VH12D9-VH2VL1
B17 returned a Kd of 1.74 nM, a koff of 0.000991 s⁻¹ and a kon of 570000 M⁻¹ s⁻¹.

B18: 21H12D9-VH2VL3 (Fab, V domains shown)
VH: QVQLVQSGAEVVKPGASVKVSCKASGYTFTDYYMNWVRQAPGQGLEWMGVINPNNGGTTYKEKFKGRVTMTVDTSISTAYMELSRLRSDDTAVYYCARDDYDAGYWGQGTLVTVSS
VL: DIQMTQSPSSVSTSVGDRVTITCKASQNVDTAVAWYQQKPGKAPKLLIYSASHRYTGVPSRFSGSGSGTDFTLTISSVQPEDFATYYCQQYTDFPLTFGQGTRLEIK
notes: Humanized Fab, human gamma 1 and kappa constant domains; also called 21VH12D9-VH2VL3
In turn, B18 gave a Kd of 1.98 nM, a koff of 0.000992 s⁻¹ and a kon of 501000 M⁻¹ s⁻¹.

What is called Kd is the equilibrium constant for the complex coming apart. A higher Kd goes with lower affinity. Usually koff stands for the rate constant with which the complex falls apart. A lower koff goes with slow dissociation. By kon is commonly meant the rate constant with which the complex forms. A low value points to slower complex formation.
